Source: patent US7067277B1, “Chimeric G proteins and uses thereof” (H. Lundbeck A/S, priority 1999, dated 2006)

T1: h Y2 (Homo sapiens, UniProt P49146)
T1 construct: expressed in transfected cells; host or cells: COS-7
T1 sequence (P49146 1-381): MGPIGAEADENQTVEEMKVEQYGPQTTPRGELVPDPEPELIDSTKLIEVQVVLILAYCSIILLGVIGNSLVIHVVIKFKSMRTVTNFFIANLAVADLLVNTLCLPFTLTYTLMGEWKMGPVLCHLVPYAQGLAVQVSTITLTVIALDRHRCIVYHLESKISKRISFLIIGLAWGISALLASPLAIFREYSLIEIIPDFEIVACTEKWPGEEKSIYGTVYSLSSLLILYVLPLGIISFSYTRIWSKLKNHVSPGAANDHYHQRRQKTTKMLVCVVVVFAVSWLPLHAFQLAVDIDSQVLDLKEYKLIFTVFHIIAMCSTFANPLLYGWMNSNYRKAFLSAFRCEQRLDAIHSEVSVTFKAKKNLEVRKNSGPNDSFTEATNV

T2: h α2C adr (Homo sapiens, UniProt P18825)
T2 construct: expressed in transfected cells; host or cells: COS-7
T2 sequence (P18825 1-462): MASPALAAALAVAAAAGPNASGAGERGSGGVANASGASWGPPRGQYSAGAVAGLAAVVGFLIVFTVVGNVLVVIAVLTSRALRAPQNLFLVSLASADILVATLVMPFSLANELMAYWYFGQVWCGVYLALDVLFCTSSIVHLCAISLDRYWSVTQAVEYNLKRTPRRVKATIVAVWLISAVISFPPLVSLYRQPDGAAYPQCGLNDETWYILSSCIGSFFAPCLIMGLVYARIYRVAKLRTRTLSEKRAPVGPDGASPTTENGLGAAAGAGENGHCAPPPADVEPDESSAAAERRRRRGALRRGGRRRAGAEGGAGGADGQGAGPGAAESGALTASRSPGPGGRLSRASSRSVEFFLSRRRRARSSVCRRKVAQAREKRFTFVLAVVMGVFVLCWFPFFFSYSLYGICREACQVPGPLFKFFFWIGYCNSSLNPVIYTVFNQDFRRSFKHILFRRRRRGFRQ

T3: r GALR2 (Rattus norvegicus, UniProt O08726)
T3 construct: expressed in transfected cells; host or cells: COS-7
T3 sequence (O08726 1-372): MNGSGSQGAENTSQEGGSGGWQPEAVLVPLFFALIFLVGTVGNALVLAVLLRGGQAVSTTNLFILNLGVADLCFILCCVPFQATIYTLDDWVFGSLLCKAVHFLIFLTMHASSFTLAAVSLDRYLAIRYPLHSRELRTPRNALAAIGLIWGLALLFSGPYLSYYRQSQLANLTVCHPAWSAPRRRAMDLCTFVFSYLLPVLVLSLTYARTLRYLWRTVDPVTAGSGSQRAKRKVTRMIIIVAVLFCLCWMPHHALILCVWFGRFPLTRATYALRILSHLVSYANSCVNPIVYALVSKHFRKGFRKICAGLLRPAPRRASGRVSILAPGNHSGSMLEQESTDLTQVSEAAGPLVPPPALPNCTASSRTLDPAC


Experiments:
Experiment in all cases: Calcium mobilization (FLIPR, Fluo-3) in transfected COS-7 cells
Format in all cases: cell-based
h kappa = target: T4, h kappa (Homo sapiens, UniProt P41145); details: h kappa + chimera in COS-7; agonist U-69593, max 100 μM
T4 construct: expressed in transfected cells; host or cells: COS-7
Summary of the method: (§1)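 Read-out is maximum change in Fluo-3 fluorescence (FLIPR, 488 nm excitation) over 3 min at room temperature after agonist addition; concentration-response curves were fitted with the Hill equation. Cells were COS-7 transiently expressing the GPCR plus chimeric G protein(s).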

r NTR1 = target: T5, r NTR1 (Rattus norvegicus, UniProt P20789); details: r NTR1 + chimera in COS-7; agonist NT, max 1 μM
T5 construct: expressed in transfected cells; host or cells: COS-7
Summary of the method: as §1

h D5 = h D5 (Homo sapiens, UniProt P21918); details: h D5 + chimera in COS-7; agonist DA, max 100 μM
Summary of the method: as §1

h Y2 = target: T1, h Y2; details: h Y2 + chimera in COS-7; agonist NPY, max 10 μM
Summary of the method: as §1

h α2C adr = target: T2, h α2C adr; details: h α2C adr + chimera in COS-7; agonist NE, max 100 μM
Summary of the method: as §1

r GALR2 = target: T3, r GALR2; details: r GALR2 + chimera in COS-7; agonist GAL, max 10 μM
Summary of the method: as §1

r Y4 = r Y4 (Rattus norvegicus, UniProt Q63447); details: r Y4 + chimera in COS-7; agonist PP, max 10 μM
Summary of the method: as §1

h Y4 = target: T6, h Y4 (Homo sapiens, UniProt P50391); details: h Y4 + chimera in COS-7; agonist PP, max 10 μM
T6 construct: expressed in transfected cells; host or cells: COS-7
Summary of the method: as §1

h GLP-1 = h GLP-1 (Homo sapiens, UniProt P43220); details: h GLP-1 + chimera in COS-7; agonist GLP-1, max 10 μM
Summary of the method: as §1

Chain of h D5 (P21918 whole entry): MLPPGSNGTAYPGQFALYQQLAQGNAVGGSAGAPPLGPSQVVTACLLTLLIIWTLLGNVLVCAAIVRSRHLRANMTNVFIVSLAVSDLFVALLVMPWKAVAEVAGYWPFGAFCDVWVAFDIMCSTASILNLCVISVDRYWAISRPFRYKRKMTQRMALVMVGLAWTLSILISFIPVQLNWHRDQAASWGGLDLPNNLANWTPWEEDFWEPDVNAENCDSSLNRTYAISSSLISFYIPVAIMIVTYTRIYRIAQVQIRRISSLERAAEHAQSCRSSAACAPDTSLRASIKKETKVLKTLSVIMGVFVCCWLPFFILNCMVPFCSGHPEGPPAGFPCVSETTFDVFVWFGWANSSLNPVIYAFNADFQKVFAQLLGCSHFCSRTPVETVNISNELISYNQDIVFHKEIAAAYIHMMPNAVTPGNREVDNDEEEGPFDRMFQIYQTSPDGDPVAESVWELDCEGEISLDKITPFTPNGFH
Chain of r Y4 (Q63447 whole entry): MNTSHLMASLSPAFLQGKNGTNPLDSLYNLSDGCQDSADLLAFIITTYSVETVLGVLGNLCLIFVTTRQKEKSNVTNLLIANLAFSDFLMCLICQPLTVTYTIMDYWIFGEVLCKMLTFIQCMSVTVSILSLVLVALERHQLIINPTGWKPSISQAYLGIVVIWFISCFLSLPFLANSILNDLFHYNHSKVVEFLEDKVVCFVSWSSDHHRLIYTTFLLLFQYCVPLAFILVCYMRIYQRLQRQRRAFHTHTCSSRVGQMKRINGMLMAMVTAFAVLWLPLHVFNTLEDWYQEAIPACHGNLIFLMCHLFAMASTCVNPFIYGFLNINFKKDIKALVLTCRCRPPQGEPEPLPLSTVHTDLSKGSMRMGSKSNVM
T4 sequence (P41145 whole entry): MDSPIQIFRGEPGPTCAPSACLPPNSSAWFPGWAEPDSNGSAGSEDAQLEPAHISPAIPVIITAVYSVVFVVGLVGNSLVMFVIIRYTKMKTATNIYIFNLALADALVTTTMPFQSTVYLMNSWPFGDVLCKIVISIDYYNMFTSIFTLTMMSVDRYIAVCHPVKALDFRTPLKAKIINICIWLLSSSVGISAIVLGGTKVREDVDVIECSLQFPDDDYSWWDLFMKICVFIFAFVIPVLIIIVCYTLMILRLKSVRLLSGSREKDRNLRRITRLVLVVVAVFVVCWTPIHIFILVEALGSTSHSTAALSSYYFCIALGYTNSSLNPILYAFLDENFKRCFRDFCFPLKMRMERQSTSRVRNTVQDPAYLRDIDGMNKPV
Chain of h GLP-1 (P43220 24-463): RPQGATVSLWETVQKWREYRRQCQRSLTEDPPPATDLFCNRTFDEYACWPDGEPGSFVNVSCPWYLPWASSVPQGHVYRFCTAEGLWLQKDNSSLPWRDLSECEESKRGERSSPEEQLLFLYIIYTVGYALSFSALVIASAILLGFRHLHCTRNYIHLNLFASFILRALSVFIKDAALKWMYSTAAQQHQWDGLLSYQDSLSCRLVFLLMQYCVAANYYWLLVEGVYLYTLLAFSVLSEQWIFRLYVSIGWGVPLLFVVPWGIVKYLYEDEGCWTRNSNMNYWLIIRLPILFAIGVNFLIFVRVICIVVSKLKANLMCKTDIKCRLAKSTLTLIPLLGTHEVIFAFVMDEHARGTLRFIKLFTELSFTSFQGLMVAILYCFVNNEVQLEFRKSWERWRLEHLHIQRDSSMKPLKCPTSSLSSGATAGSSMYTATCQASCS
T5 sequence (P20789 whole entry): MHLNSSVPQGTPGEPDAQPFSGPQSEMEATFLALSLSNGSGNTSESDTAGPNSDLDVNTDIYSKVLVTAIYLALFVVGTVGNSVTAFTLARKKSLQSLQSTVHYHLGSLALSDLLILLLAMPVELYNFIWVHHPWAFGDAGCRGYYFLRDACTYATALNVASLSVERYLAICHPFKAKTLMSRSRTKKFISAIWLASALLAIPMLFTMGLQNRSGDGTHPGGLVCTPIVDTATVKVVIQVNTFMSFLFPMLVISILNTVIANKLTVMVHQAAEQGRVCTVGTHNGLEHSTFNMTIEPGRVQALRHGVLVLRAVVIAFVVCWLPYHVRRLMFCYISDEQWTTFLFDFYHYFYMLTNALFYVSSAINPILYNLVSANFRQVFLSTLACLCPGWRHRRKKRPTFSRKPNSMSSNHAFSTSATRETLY
T6 sequence (P50391 whole entry): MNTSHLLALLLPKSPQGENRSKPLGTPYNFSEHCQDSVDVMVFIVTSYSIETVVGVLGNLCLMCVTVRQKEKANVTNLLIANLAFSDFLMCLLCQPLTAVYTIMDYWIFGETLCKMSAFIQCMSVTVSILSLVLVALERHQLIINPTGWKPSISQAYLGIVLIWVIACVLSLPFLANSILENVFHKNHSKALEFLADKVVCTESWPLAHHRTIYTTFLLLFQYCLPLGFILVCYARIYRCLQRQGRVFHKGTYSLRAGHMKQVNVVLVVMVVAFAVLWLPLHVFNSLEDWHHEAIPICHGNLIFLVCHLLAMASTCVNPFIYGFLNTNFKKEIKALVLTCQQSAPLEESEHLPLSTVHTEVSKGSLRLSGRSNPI

| Molecule | MAXIMAL SIGNAL (FLUORESCENCE UNITS) (h kappa) | MAXIMAL SIGNAL (FLUORESCENCE UNITS) (r NTR1) | MAXIMAL SIGNAL (FLUORESCENCE UNITS) (h D5) | MAXIMAL SIGNAL (FLUORESCENCE UNITS) (h Y2) | MAXIMAL SIGNAL (FLUORESCENCE UNITS) (h α2C adr) | MAXIMAL SIGNAL (FLUORESCENCE UNITS) (r GALR2) | MAXIMAL SIGNAL (FLUORESCENCE UNITS) (r Y4) | MAXIMAL SIGNAL (FLUORESCENCE UNITS) (h Y4) | MAXIMAL SIGNAL (FLUORESCENCE UNITS) (h GLP-1) |
| --- | --- | --- | --- | --- | --- | --- | --- | --- | --- |
| cGαq/z5: chimeric Gα subunit: C-terminal final 5 amino acids of C. elegans Gαq replaced with those of hGαz (SEQ ID NO: 1) (protein, C. elegans) MACCLSEEAREQKRINQEIEKQLQRDKRNARRELKLLLLGTGESGKSTFIKQMRIIHGQGYSEEDKRAHIRLVYQNVFMAIQSMIRAMDTLDIKFGNESEELQEKAAVVREVDFESVTSFEEPYVSYIKELWEDSGIQECYDRRREYQLTDSAKYYLSDLRRLAVPDYLPTEQDILRVRVPTTGIIEYPFDLEQIIFRMVDVGGQRSERRKWIHCFENVTSIMFLVALSEYDQVLVECDNENRMEESKALFRTIITYPWFTNSSVILFLNKKDLLEEKILYSHLADYFPEYDGPPRDPIAAREFILKMFVDLNPDADKIIYSHFTCATDTENIRFVFAAVKDTILQHNLKYIGLC | 5975 fluorescence units | 14476 fluorescence units | 657 fluorescence units | 7708 fluorescence units | 4143 fluorescence units | 4198 fluorescence units | 3662 fluorescence units | 9422 fluorescence units | 131 fluorescence units |
| cGαq/z9: C. elegans Gαq with Gαz portion of the C-terminal tail extended to 9 amino acids (SEQ ID NO: 2) (protein, C. elegans) MACCLSEEAREQKRINQEIEKQLQRDKRNARRELKLLLLGTGESGKSTFIKQMRIIHGQGYSEEDKRAHIRLVYQNVFMAIQSMIRAMDTLDIKFGNESEELQEKAAVVREVDFESVTSFEEPYVSYIKELWEDSGIQECYDRRREYQLTDSAKYYLSDLRRLAVPDYLPTEQDILRVRVPTTGIIEYPFDLEQIIFRMVDVGGQRSERRKWIHCFENVTSIMFLVALSEYDQVLVECDNENRMEESKALFRTIITYPWFTNSSVILFLNKKDLLEEKILYSHLADYFPEYDGPPRDPIAAREFILKMFVDLNPDADKIIYSHFTCATDTENIRFVFAAVKDTILQNNLKYIGLC | 3472 fluorescence units | 6111 fluorescence units | 797 fluorescence units | 5387 fluorescence units | 3874 fluorescence units | 4470 fluorescence units | 2583 fluorescence units | 7397 fluorescence units | 135 fluorescence units |
